Measured values as given in patent US20190300589A1 (GREENOVATION BIOTECH, published 2019).

B1: MFHR1 (His-tag - FHR1(SCR1-2)-FH(SCR1-4)-FH(SCR19-20)) (other)
chain: ADLGSHHHHHHHHHHDYDRSFCDFPKINHGILYDEEKYKPFSQVPTGEVFYYSCEYNFVSPSKSFWTRITCTEEGWSPTPKCLRLCFFPFVENGHSESSGQTHLEGDTVQIICNTGYRLQNNENNISCVERGWSTPPKCRSEDCNELPPRRNTEILTGSWSDQTYPEGTQAIYKCRPGYRSLGNVIMVCRKGEWVALNPLRKCQKRPCGHPGDTPFGTFTLTGGNVFEYGVKAVYTCNEGYQLLGEINYRECDTDGWTNDIPICEVVKCLPVTAPENGKIVSSAMEPDREYHFGQAVRFVCNSGYKIEGDEEMHCSDDGFWSKEKPKCVEISCKSPDVINGSPISQKIIYKENERFQYKCNMGYEYSERGDAVCTESGWRPLPSCEDSTGKCGPPPPIDNGDITSFPLSVYAPASSVEYQCQNLYQLEGNKRITCRNGQWSEPPKCLHPCVISREIMENYNIALRWTAKQKLYSRTGESVEFVCKRGYRLSSRSHTLRTTCWDGKLEYPTCAKR
notes: Recombinant fusion protein expressed in SF9 insect cells (baculovirus); By size exclusion chromatography it runs mostly as a multimer; also called MFHR1 with His tag
B2: human plasma derived Factor H (hFH) (other)
chain: EDCNELPPRRNTEILTGSWSDQTYPEGTQAIYKCRPGYRSLGNVIMVCRKGEWVALNPLRKCQKRPCGHPGDTPFGTFTLTGGNVFEYGVKAVYTCNEGYQLLGEINYRECDTDGWTNDIPICEVVKCLPVTAPENGKIVSSAMEPDREYHFGQAVRFVCNSGYKIEGDEEMHCSDDGFWSKEKPKCVEISCKSPDVINGSPISQKIIYKENERFQYKCNMGYEYSERGDAVCTESGWRPLPSCEEKSCDNPYIPNGDYSPLRIKHRTGDEITYQCRNGFYPATRGNTAKCTSTGWIPAPRCTLKPCDYPDIKHGGLYHENMRRPYFPVAVGKYYSYYCDEHFETPSGSYWDHIHCTQDGWSPAVPCLRKCYFPYLENGYNQNYGRKFVQGKSIDVACHPGYALPKAQTTVTCMENGWSPTPRCIRVKTCSKSSIDIENGFISESQYTYALKEKAKYQCKLGYVTADGETSGSITCGKDGWSAQPTCIKSCDIPVFMNARTKNDFTWFKLNDTLDYECHDGYESNTGSTTGSIVCGYNGWSDLPICYERECELPKIDVHLVPDRKKDQYKVGEVLKFSCKPGFTIVGPNSVQCYHFGLSPDLPICKEQVQSCGPPPELLNGNVKEKTKEEYGHSEVVEYYCNPRFLMKGPNKIQCVDGEWTTLPVCIVEESTCGDIPELEHGWAQLSSPPYYYGDSVEFNCSESFTMIGHRSITCIHGVWTQLPQCVAIDKLKKCKSSNLIILEEHLKNKKEFDHNSNIRYRCRGKEGWIHTVCINGRWDPEVNCSMAQIQLCPPPPQIPNSHNMTTTLNYRDGEKVSVLCQENYLIQEGEEITCKDGRWQSIPLCVEKIPCSQPPQIEHGTINSSRSSQESYAHGTKLSYTCEGGFRISEENETTCYMGKWSSPPQCEGLPCKSPPEISHGVVAHMSDSYQYGEEVTYKCFEGFGIDGPAIAKCLGEKWSHPPSCIKTDCLSLPSFENAIPMGEKKDVYKAGEQVTYTCATYYKMDGASNVTCINSRWTGRPTCRDTSCVNPPTVQNAYIVSRQMSKYPSGERVRYQCRSPYEMFGDEEVMCLNGNWTEPPQCKDSTGKCGPPPPIDNGDITSFPLSVYAPASSVEYQCQNLYQLEGNKRITCRNGQWSEPPKCLHPCVISREIMENYNIALRWTAKQKLYSRTGESVEFVCKRGYRLSSRSHTLRTTCWDGKLEYPTCAKR
notes: Purified from human plasma, so the mature protein; also called FHplasma; plasma purified FH

Key:
[1] = target: the molecule itself; assay: size exclusion chromatography (Superdex 200 10/300 GL), self-association
Procedure: FIG. 5. Multimeric complexes increase AP regulatory activity of MFHR1 in human serum. A) Size exclusion chromatography (Superdex 200 10/300 GL) of bovine serum albumin (BSA), serum plasma derived FH (hFH) and MFHR1. The three compositions of BSA mixture presented different retention volumes based on molecular mass, which was I. BSA trimer (198 kDa, 10.35 ml), II. BSA dimer (132 kDa, 11.45 ml) and III. BSA monomer (66 kDa, 13.4 ml). […] Theoretical trimer (II. 10.7), dimer (III. 11.4) intermediates (IV.-V.) or monomeric (IV. 13.5) MFHR1 are indicated in the elution profile. B) Analysis of MFHR1 after elution from SEC column as performed in A. 20 μl protein from fractions was loaded on a 10% SDS-PAGE and silver stained C) Afterwards, single or pooled MFHR1 SEC fractions were added into human serum at 10 nM and AP activation was proceeded by incubation in LPS coated wells using AP specific buffer conditions. Regulatory efficiency of MFHR1 fractions was analyzed by measuring C5b-9 complex formation. AP activity of untreated control serum was set to 100%.

[2] = target: C5 (complement component C5) (UniProt P01031 19-673; P01031 678-1676); assay: ELISA, hFH (133 nM) immobilised, C5 in solution, detected with monoclonal C5 antibodies
C5 (complement component C5), sequence (P01031 19-673 limits assumed, chain 1 of 2): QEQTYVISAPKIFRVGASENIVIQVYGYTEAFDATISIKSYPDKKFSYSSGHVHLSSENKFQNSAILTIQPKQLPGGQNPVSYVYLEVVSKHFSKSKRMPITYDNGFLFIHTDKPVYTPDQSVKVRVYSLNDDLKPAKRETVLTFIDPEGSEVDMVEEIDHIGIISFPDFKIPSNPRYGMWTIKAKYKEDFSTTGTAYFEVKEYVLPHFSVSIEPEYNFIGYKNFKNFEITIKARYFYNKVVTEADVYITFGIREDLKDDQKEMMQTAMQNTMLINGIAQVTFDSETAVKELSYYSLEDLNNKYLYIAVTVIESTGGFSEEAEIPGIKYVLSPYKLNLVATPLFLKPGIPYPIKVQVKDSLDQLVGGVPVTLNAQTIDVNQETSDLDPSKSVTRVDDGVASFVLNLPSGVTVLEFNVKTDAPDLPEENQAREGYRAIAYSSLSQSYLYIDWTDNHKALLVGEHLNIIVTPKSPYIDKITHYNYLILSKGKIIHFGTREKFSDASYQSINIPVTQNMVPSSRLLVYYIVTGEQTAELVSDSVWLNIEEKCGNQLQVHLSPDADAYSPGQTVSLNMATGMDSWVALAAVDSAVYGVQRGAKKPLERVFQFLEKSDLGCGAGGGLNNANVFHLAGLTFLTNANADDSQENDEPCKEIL
C5 (complement component C5), sequence (P01031 678-1676 limits assumed, chain 2 of 2): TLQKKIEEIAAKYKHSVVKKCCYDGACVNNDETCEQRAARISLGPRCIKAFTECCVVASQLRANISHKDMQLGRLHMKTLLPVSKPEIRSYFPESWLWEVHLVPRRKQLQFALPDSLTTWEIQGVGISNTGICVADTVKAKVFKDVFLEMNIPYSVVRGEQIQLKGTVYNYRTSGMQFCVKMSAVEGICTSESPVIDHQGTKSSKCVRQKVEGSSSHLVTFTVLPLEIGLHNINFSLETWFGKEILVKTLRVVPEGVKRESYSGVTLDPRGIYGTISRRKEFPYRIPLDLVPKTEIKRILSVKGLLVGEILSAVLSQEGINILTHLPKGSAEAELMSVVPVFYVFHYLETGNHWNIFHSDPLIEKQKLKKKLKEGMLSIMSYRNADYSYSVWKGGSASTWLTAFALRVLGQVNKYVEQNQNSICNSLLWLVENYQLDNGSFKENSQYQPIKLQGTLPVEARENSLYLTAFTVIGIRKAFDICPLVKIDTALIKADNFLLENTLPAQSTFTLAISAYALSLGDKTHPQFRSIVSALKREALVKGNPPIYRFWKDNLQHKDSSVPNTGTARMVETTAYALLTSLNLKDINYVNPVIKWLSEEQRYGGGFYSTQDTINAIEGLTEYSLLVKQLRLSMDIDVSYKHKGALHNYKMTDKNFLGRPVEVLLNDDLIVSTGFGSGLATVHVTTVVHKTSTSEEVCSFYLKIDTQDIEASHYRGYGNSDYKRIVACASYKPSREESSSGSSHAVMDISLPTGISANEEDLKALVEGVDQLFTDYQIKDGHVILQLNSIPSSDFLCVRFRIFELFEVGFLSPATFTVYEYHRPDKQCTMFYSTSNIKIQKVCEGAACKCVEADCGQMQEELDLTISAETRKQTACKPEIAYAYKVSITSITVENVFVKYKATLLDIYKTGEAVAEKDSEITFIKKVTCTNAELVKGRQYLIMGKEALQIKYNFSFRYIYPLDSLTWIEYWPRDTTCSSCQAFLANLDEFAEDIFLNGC
Procedure: FIG. 3. MFHR1 binds C5 and regulates terminal pathway activation by inhibition of the C5 convertase/C5 cleavage and MAC formation. A) MFHR1 binds to C5 as determined by ELISA. Equimolar amounts of MFHR1, full length FHR1, hFH or BSA (133 nM) were immobilized to Nunc plates and incubated with increasing concentrations (10, 20, 40 μg/ml) of C5. Binding was detected using monoclonal C5 antibodies and HRP-labelled secondary antibodies. Data are mean±SD from n=3 experiments B) MFHR1 inhibits AP activation by blockade of C5 cleavage. Cobra venom factor (CVF) C5 convertase was generated on sheep erythrocytes (sE) after adding Factor B (FB) and Factor D (FD). Hemolysis was induced after adding C5, C6, C7, C8 and C9 components and detected at 414 nm. […] C) MFHR1 inhibits formation of the membrane attack complex (MAC) on sE. MAC formation on sE was induced by incubation with C5b6, C7, C8 and C9 components and detected by hemolysis of cells. Preincubation of C5b6 with MFHR1, FHR1 or Eculizumab inhibited hemolysis at significant levels compared to hFH or BSA. […] In B and C control without regulator (w/o) was set as 100%. All data represent mean values ±SD of 3 separate experiments. ***P<0.001 vs. w/o control, one-way ANOVA with Bonferroni multiple comparison test.

Binder	binding result [1]	binding result [2]
B1	binds	
B2		no binding (tested: 10, 20, 40 µg/ml of C5)
